Test results taken from article PMC8433370, “Low sample volume origami-paper-based graphene-modified aptasensors for label-free electrochemical detection of cancer biomarker-EGFR”.

Molecular target: EGFR antigen (epidermal growth factor receptor) (UniProt P00533 25-645)
Experiment: electrochemical aptasensor (CV/DPV); aptamer on NH2-GO/THI/AuNP paper electrode; linear range 0.05-200 ng/mL, LOD 5 pg/mL (not a Kd); Aptamer on NH2-GO/THI/AuNP electrode, mercaptoethanol block, wash in TE (10 mM Tris-HCl, 1 mM EDTA; TE stock pH 8.0); binding buffer and temperature not given in the material
Conditions: protein: commercial

B1: anti-EGFR aptamer (ssDNA)
DNA: TACCAGTGCGATGCTCAGTGCCGTTTCTTCTCTTTCGCTTTTTTTGCTTTTGAGCATGCTGACGCATTCGGTTGAC
modifications: 5'-thiol
Q: Does B1 bind?
A: Result: binds
